PMC4227051, “B4GAT1 is the priming enzyme for the LARGE-dependent functional glycosylation of α-dystroglycan” (eLife, 2014)

Tests used:
[1] = biological target: T1, B3GNT2 (Homo sapiens, UniProt Q9NY97); test: radioactive GlcNAc transfer, scintillation counting; format: biochemical; conditions: 0.1 M MES pH 6.5, 10 mM MnCl2, 37 °C, overnight
T1 construct: catalytic domain residues 35-397, secreted; N-terminal 8xHis-AviTag-sfGFP-TEV fusion kept; HEK293F host, Ni-NTA
T1 sequence (Q9NY97 35-397): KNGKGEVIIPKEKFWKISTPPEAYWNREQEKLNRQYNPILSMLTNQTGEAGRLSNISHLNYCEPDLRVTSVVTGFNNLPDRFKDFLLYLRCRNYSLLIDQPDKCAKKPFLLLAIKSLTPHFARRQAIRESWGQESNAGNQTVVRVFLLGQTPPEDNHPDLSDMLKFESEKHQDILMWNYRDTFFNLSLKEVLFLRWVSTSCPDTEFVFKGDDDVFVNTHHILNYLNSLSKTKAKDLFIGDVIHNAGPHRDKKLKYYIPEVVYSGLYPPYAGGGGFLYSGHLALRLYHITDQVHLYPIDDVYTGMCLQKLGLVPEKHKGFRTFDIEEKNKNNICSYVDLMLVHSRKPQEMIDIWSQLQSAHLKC

[2] = substrate: O=[N+]([O-])c1ccc(O[C@H]2OC[C@@H](O)[C@H](O)[C@H]2O)cc1; test: purified protein; format: biochemical, Homo sapiens; conditions: 2 mM UDP-GlcA, 0.1 M MES pH 6.5, 10 mM MnCl2, 5 mM MgCl2, 37 °C, acceptor tested 200 nM to 2 mM
[3] = substrate: O=[N+]([O-])c1ccc(O[C@@H]2OC[C@@H](O)[C@H](O)[C@H]2O)cc1; test: purified protein; format: biochemical, Homo sapiens; conditions: 2 mM UDP-GlcA, 0.1 M MES pH 6.5, 10 mM MnCl2, 5 mM MgCl2, 37 °C, 2 h, acceptor tested 200 nM to 2 mM
[4] = 16 h, glucuronyltransferase activity

Molecule: CC(=O)N[C@H]1[C@@H](OP(=O)(O)OP(=O)(O)OC[C@H]2O[C@@H](n3ccc(=O)[nH]c3=O)[C@H](O)[C@@H]2O)O[C@H](CO)[C@@H](O)[C@@H]1O [UDP-GlcNAc]
- radioactive GlcNAc transfer, scintillation counting ([1]; donor, labelled compound, acceptor Gal-β4-GlcNAc-β-pNP): radioactive incorporation of GlcNAc into the N-acetyllactosamine acceptor

Molecule: CC(=O)N[C@H]1[C@H](Oc2ccc([N+](=O)[O-])cc2)O[C@H](CO)[C@@H](O[C@@H]2O[C@H](CO)[C@H](O)[C@H](O)[C@H]2O)[C@@H]1O [Gal-β4-GlcNAc-β-pNP]
- radioactive GlcNAc transfer, scintillation counting ([1]; 2 mM UDP-GlcNAc with UDP-[3H]GlcNAc): showed clear N-acetylglucosaminyltransferase activity toward the acceptor only with B3GNT2

B1: LARGE (Homo sapiens) (protein)
chain: PSHRRGNHSKTYSMEEGTGDSENLRAGIVAGNSSECGQQPVVEKCETIHVAIVCAGYNASRDVVTLVKSVLFHRRNPLHFHLIADSIAEQILATLFQTWMVPAVRVDFYNADELKSEVSWIPNKHYSGIYGLMKLVLTKTLPANLERVIVLDTDITFATDIAELWAVFHKFKGQQVLGLVENQSDWYLGNLWKNHRPWPALGRGYNTGVILLLLDKLRKMKWEQMWRLTAERELMGMLSTSLADQDIFNAVIKQNPFLVYQLPCFWNVQLSDHTRSEQCYRDVSDLKVIHWNSPKKLRVKNKHVEFFRNLYLTFLEYDGNLLRRELFGCPSEADVNSENLQKQLSELDEDDLCYEFRRERFTVHRTHLYFLHYEYEPAADSTDVTLVAQLSMDRLQMLEAICKHWEGPISLALYLSDAEAQQFLRYAQGSEVLMSRHNVGYHIVYKEGQFYPVNLLRNVAMKHISTPYMFLSDIDFLPMYGLYEYLRKSVIQLDLANTKKAMIVPAFETLRYRLSFPKSKAELLSMLDMGTLFTFRYHVWTKGHAPTNFAKWRTATTPYRVEWEADFEPYVVVRRDCPEYDRRFVGFGWNKVAHIMELDVQEYEFIVLPNAYMIHMPHAPSFDITKFRSNKQYRICLKTLKEEFQQDMSRRYGFAALKYLTAENNS
notes: catalytic domains residues 91-756, secreted; N-terminal 8xHis-AviTag-sfGFP-TEV fusion kept; HEK293F host, Ni-NTA
- Km [2, 4]: 6.0 mM
- kcat [2, 4]: 0.005 s⁻¹
- kcat/Km [2, 4]: 0.84 M⁻¹ s⁻¹

B2: B3GNT1 (B4GAT1) (Homo sapiens) (protein)
chain: RSVDQVKAQLRTALASGGVLDASGDYRVYRGLLKTTMDPNDVILATHASVDNLLHLSGLLERWEGPLSVSVFAATKEEAQLATVLAYALSSHCPDMRARVAMHLVCPSRYEAAVPDPREPGEFALLRSCQEVFDKLARVAQPGINYALGTNVSYPNNLLRNLAREGANYALVIDVDMVPSEGLWRGLREMLDQSNQWGGTALVVPAFEIRRARRMPMNKNELVQLYQVGEVRPFYYGLCTPCQAPTNYSRWVNLPEESLLRPAYVVPWQDPWEPFYVAGGKVPTFDERFRQYGFNRISQACELHVAGFDFEVLNEGFLVHKGFKEALKFHPQKEAENQHNKILYRQFKQELKAKYPNSPRRC
notes: catalytic domain residues 54-415, secreted, transmembrane domain removed; N-terminal 8xHis-AviTag-sfGFP-TEV fusion cut by TEV; HEK293F host, Ni-NTA
- Km [3]: 4.0 mM
- kcat [3]: 0.25 s⁻¹
- kcat/Km [3]: 63 M⁻¹ s⁻¹
- Km ([2]; 2 h): 3.0 mM
- kcat ([2]; 2 h): 0.087 s⁻¹
- kcat/Km ([2]; 2 h): 29 M⁻¹ s⁻¹
